Experimental data published in publication PMC9352680, “A comprehensive thermodynamic model for RNA binding by the Saccharomyces cerevisiae Pumilio protein PUF4”.
Positions count from the first letter of the chain named. Names may count otherwise.

T1: PUF4 RNA-binding domain (Saccharomyces cerevisiae, UniProt P25339 537-888)
T1 sequence: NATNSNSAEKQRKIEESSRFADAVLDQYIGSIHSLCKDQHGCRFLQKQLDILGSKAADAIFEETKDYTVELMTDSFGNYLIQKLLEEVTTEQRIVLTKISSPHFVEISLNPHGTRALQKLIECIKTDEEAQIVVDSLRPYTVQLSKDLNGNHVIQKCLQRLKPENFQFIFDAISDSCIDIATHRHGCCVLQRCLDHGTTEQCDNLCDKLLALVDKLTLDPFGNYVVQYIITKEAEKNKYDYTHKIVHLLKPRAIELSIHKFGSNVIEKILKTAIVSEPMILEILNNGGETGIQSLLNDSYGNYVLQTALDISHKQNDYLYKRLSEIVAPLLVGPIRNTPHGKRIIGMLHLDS

B1: Id_ii_S2_P4E.3_K4.2_C4.2_[C-2T]_H4.2_A4.1_F4.1_T4.2 (ssRNA)
RNA: UUUGAUUAAUAUGAUAUCGUUCUUUCUUUUAUAUAUUAGUUUCUUUCUCGAUAUCAUAUUAAUCUUU
B2: Id_ii_S2_P4E.3_K4.2_C4.2_[C-2A]_[T-1G]_H4.2_A4.1_F4.1_T4.2_[G10T]_[T11C] (ssRNA)
RNA: B1 RNA with U28A, U29G, G39U, U40C
B3: Id_ii_S2_P4E.3_K4.2_C4.2_[T-1C]_H4.2_A4.1_F4.1_T4.2_[G10T] (ssRNA)
RNA: B1 RNA with U28C, U29C, G39U
B4: Id_ii_S2_P4E.3_K4.2_C4.2_[C-2A]_[T-1A]_H4.2_A4.1_F4.1_T4.2_[G10T] (ssRNA)
RNA: B1 RNA with U28A, U29A, G39U
B5: Id_ii_S2_P4E.3_K4.2_C4.2_[C-2A]_[T-1C]_H4.2_A4.1_F4.1_T4.2_[G10C] (ssRNA)
RNA: B1 RNA with U28A, U29C, G39C
B6: Id_ii_S2_P4E.3_K4.2_C4.2_[C-2T]_H4.2_A4.1_F4.1_T4.2_[G10C]_[T11C] (ssRNA)
RNA: B1 RNA with G39C, U40C
B7: Id_ii_S2_P4E.3_K4.2_C4.2_[C-2A]_H4.2_A4.1_F4.1_T4.2_[G10T]_[T11C] (ssRNA)
RNA: B1 RNA with U28A, G39U, U40C
B8: Id_ii_S2_P4E.3_K4.2_C4.2_[T-1C]_H4.2_A4.1_F4.1_T4.2_[G10A]_[T11A] (ssRNA)
RNA: B1 RNA with U28C, U29C, G39A, U40A
B9: Id_ii_S2_P4E.3_K4.2_C4.2_[C-2T]_H4.2_A4.1_F4.1_T4.2_[G10A] (ssRNA)
RNA: B1 RNA with G39A
B10: Id_ii_S2_P4E.3_K4.2_C4.2_[C-2A]_[T-1C]_H4.2_A4.1_F4.1_T4.2_[G10A]_[T11C] (ssRNA)
RNA: B1 RNA with U28A, U29C, G39A, U40C
B11: Id_ii_S2_P4E.3_K4.2_C4.2_[C-2A]_H4.2_A4.1_F4.1_T4.2_[G10C]_[T11A] (ssRNA)
RNA: B1 RNA with U28A, G39C, U40A
B12: Id_ii_S2_P4E.3_K4.2_C4.2_[T-1C]_H4.2_A4.1_F4.1_T4.2_[G10T]_[T11G] (ssRNA)
RNA: B1 RNA with U28C, U29C, G39U, U40G
B13: Id_ii_S2_P4E.3_K4.2_C4.2_[T-1A]_H4.2_A4.1_F4.1_T4.2_[G10C] (ssRNA)
RNA: B1 RNA with U28C, U29A, G39C
B14: Id_ii_S2_P4E.3_K4.2_C4.2_[T-1G]_H4.2_A4.1_F4.1_T4.2_[G10A]_[T11G] (ssRNA)
RNA: B1 RNA with U28C, U29G, G39A, U40G
B15: Id_ii_S2_P4E.3_K4.2_C4.2_[C-2T]_H4.2_A4.1_F4.1_T4.2_[G10C]_[T11A] (ssRNA)
RNA: B1 RNA with G39C, U40A
B16: Id_ii_S2_P4E.3_K4.2_C4.2_[C-2A]_H4.2_A4.1_F4.1_T4.2_[G10C]_[T11G] (ssRNA)
RNA: B1 RNA with U28A, G39C, U40G
B17: Id_ii_S2_P4E.3_K4.2_C4.2_[T-1A]_H4.2_A4.1_F4.1_T4.2_[G10C]_[T11G] (ssRNA)
RNA: B1 RNA with U28C, U29A, G39C, U40G
B18: Id_ii_S2_P4E.3_K4.2_C4.2_[C-2A]_[T-1A]_H4.2_A4.1_F4.1_T4.2_[G10C]_[T11C] (ssRNA)
RNA: B1 RNA with U28A, U29A, G39C, U40C
B19: Id_ii_S2_P4E.3_K4.2_C4.2_[C-2A]_H4.2_A4.1_F4.1_T4.2_[G10T]_[T11G] (ssRNA)
RNA: B1 RNA with U28A, G39U, U40G
B20: Id_ii_S2_P4E.3_K4.2_C4.2_[C-2T]_H4.2_A4.1_F4.1_T4.2_[G10A]_[T11G] (ssRNA)
RNA: B1 RNA with G39A, U40G
B21: Id_ii_S2_P4E.3_K4.2_C4.2_[T-1G]_H4.2_A4.1_F4.1_T4.2_[G10T] (ssRNA)
RNA: B1 RNA with U28C, U29G, G39U
B22: Id_ii_S2_P4E.3_K4.2_C4.2_[T-1G]_H4.2_A4.1_F4.1_T4.2_[G10A]_[T11C] (ssRNA)
RNA: B1 RNA with U28C, U29G, G39A, U40C
B23: Id_ii_S2_P4E.3_K4.2_C4.2_[C-2T]_H4.2_A4.1_F4.1_T4.2_[G10T]_[T11C] (ssRNA)
RNA: B1 RNA with G39U, U40C
B24: Id_ii_S2_P4E.3_K4.2_C4.2_[C-2A]_[T-1C]_H4.2_A4.1_F4.1_T4.2_[G10C]_[T11G] (ssRNA)
RNA: B1 RNA with U28A, U29C, G39C, U40G
B25: Id_ii_S2_P4E.3_K4.2_C4.2_[C-2T]_H4.2_A4.1_F4.1_T4.2_[G10C] (ssRNA)
RNA: B1 RNA with G39C

Biological target: T1, PUF4 RNA-binding domain
Experiment: Mg; RNA-MaP; 20 mM Na-HEPES pH 7.4, 30 mM KOAc, 0.75 mM MgCl2, 0.1% Tween-20, 5% glycerol, 0.1 mg/mL BSA, 2 mM DTT; 25 C; 0.0125-409.6 nM protein
Settings: tags: N-His6-TEV cleaved; C-SNAP kept, Cy3B-labelled; label: tethered on chip by stalled RNA polymerase

Binder	Kd [nM]
B1	9.27
B2	284
B3	3.61
B4	214
B5	9.33
B6	8.62
B7	12.2
B8	12.2
B9	17.3
B10	13.3
B11	18.2
B12	5.86
B13	7.44
B14	266
B15	8.41
B16	25.3
B17	32.8
B18	56.4
B19	26.1
B20	700
B21	7.25
B22	22.8
B23	7.36
B24	159
B25	3.66
UCUCUUUGCAUUAUUCUCUCUU (ssRNA) [Ib_S1_P5E.1_K5.1_C5.1_H5.1_[T3C]_A5.1_F5.1_[A10C]_T5.1]	> 2300
UCUCUUUGUCUUAUUCUCUCUU (ssRNA) [Ib_S1_P5E.1_K5.1_C5.1_H5.1_[A4C]_A5.1_F5.1_[A10C]_T5.1]	1350
UCUCUUUGUGUUAUUGUCUCUU (ssRNA) [Ib_S1_P5E.1_K5.1_C5.1_H5.1_[A4G]_A5.1_F5.1_[A10G]_T5.1]	382
UCUCUUUGUUUUAUUGUCUCUU (ssRNA) [Ib_S1_P5E.1_K5.1_C5.1_H5.1_[A4T]_A5.1_F5.1_[A10G]_T5.1]	378
